The source of these data is article PMC10618197.

The target of experiment [1] is HbpD-SpyCatcher fusion protein displayed on the OMV surface (not stated | Streptococcus pyogenes). Nature of the experiment: SDS-PAGE with in-gel fluorescence of the covalent adduct; 10 µM SpT-CF incubated with OMV isolates for 24 h at 4 °C; fluorescence of the specific band normalized to the OmpF band after PageBlue staining; 3 separate OMV isolates for each plasmid.

For experiment [2], the target named is AIDA-SpyCatcher fusion protein displayed on the OMV surface (Streptococcus pyogenes | not stated). The description is as above.
In experiment [3] the target is HbpD-SpyCatcher fusion protein displayed on the OMV surface (not stated | Streptococcus pyogenes). Put plainly: SEC; 10 µM SpT-CF incubated with OMV isolates for 24 h at 4 °C; SEC-HPLC on Sepharose CL-4B in PBS pH 7.4; AUC of the OMV peak of the fluorescent chromatogram normalized to the AUC of the corresponding UV peak.
The target of experiment [4] is AIDA-SpyCatcher fusion protein displayed on the OMV surface (Streptococcus pyogenes | not stated). Described as above.

Turning to “carboxyfluorescein coupled SpyTag (peptide)”, the SpT-CF band fluorescence normalized to the OmpF band in experiment [1] turned out to be 4.15 AU; in experiment [2], 6.55 AU. Moreover, the fluorescence AUC of the OMV peak normalized to the UV AUC turned out to be 2.25 AU in experiment [3] and 6.86 AU in experiment [4].
